Measured values from patent publication US20200317802A1 (Merck KGaA, published 2020).
Substitutions are numbered along the chain they refer to.

T1: recombinant human ADAMTS5 (R&D Systems cat #2198-AD) (human, UniProt Q9UNA0 262-622, limits assumed)
T1 sequence: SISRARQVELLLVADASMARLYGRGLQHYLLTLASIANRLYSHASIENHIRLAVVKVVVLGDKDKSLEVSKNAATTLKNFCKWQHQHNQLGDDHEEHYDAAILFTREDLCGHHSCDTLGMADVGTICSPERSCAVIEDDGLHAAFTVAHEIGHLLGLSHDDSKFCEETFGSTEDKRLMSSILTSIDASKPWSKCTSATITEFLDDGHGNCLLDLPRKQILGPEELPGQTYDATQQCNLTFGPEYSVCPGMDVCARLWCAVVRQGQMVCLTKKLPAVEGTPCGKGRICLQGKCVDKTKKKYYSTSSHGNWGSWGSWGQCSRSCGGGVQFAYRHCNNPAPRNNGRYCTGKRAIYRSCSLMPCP

T2: cynomolgus monkey recombinant ADAMTS5 (cynomolgus monkey, UniProt Q9UNA0 262-622 (human entry), limits assumed)
T2 construct: in house, HEK293, His tag in the entry; also called cyno ADAMTS5
T2 chain: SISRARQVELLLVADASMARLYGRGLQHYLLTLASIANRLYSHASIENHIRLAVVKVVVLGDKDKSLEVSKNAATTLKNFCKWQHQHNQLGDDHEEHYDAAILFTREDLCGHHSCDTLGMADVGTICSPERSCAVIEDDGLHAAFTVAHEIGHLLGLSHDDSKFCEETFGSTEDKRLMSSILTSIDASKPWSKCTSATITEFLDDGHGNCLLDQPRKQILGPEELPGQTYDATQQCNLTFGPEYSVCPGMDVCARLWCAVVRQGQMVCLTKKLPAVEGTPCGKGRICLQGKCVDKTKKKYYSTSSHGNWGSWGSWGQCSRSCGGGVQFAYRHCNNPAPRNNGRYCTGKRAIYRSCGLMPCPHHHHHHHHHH

T3: guinea pig recombinant ADAMTS5 (guinea pig)
T3 construct: in house, HEK293, His tag in the entry
T3 chain: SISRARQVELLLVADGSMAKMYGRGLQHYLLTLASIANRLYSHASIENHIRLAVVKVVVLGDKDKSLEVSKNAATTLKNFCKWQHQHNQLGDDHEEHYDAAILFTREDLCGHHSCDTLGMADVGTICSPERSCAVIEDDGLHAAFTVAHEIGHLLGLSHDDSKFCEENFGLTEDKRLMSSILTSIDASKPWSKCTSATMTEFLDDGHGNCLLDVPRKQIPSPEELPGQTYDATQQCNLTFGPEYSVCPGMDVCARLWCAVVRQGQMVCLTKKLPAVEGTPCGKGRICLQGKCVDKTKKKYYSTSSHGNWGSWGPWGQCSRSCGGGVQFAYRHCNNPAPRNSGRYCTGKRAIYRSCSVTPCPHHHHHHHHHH

T4: mouse recombinant ADAMTS5 (mouse, UniProt Q9R001 262-622, limits assumed)
T4 construct: in house, HEK293, His tag in the entry
T4 sequence: T3 chain with G16S, K20R, G61T, K65T, L171T, M199I, V214L, P220L, S221G, I286V

B1: monovalent Nanobody 2F3^SO (2F3*) (VHH)
VHH: DVQLVESGGGVVQPGGSLRLSCAASGRTVSSYAMGWFRQAPGKEREFVAGISRSAERTYYVDSLKGRFTISRDNSKNTVYLQMNSLRPEDTALYYCAADLDPNRIFSREEYAYWGQGTLVTVSS
B2: Nanobody 9D03 (VHH)
VHH: EVQLVESGGGLVQSGGSLRLSCAASGSAVSVNAMAWYRQAPGKQRDFVAGISRSAGRTYYTDSVKDRFTIARDSAKNTVYLQMNRLKPEDTAVYYCAADLDPNRIFSRDEAAYWGQGTLVTVSS
notes: tagged as tested (anti-Flag detection, IMAC); also called 09D03; 9D3
B3: Nanobody 3D01 (VHH)
VHH: EVQLVESGGGLVQAGGSLRLSCAPSGFTFSPYYMGWFRQAPGKERDFVAAISRSRGTTYYLDSTEGRFTISRDNANDTVYLQMNSLNPEDTAVYYCAAGRSPGDPSRTYLYDYWGQGTLVTVSS
notes: tagged as tested (anti-Flag detection, IMAC); also called 03D01
B4: Nanobody 3B02 (VHH)
VHH: EVQLVESGGGFVQAGGSLRLSCVASRRTISSGTMGWFRQAPGKEREFVAAIRWSSGMPYYLDSVMDRFTISRDNAKNTVSLQMNSLQPEDTAVYYCAADRSAFRDPSFDVNYEYWGRGTLVTVSS
notes: tagged as tested (anti-Flag detection, IMAC); also called 03B02; 3B2
B5: Nanobody 11B06 (VHH)
VHH: EVQLVESGGGLVQAGGSLRLSCAASGLTFRRNAMGWFRQAPGKERELLAGINWSGGTTYYVDSVKGRFTISRDNAKNTVDLQMISPKPEDTAVYYCAADGDIGTLVNDENPRYWGQGTLVTVSS
notes: tagged as tested (anti-Flag detection, IMAC)
B6: Nanobody 2D07 (VHH)
VHH: EVQLVESGGGLVQAGGSLRLSCSFSGPGRTFARYAMGWFRQAPGKNRDFITGISGSGDSTYYVYPMKDRFTISRDNAKNMVYLQMNALKPEDTAVYYCAADREINRIANDKELDFWGQGTLVTVSS
notes: tagged as tested (anti-Flag detection, IMAC); also called 02D07; 2D7

Legend:
[1] = molecular target: T1, recombinant human ADAMTS5 (R&D Systems …); assay: cell-based or functional assay
[2] = molecular target: T2, cynomolgus monkey recombinant ADAMTS5; assay: SPR off-rate, Biacore T100, ADAMTS5 immobilised, experiment 1
Protocol: (§1) Species cross-reactivity was initially evaluated via SPR-based off-rate analysis on a Biacore T100 instrument. Nanobodies were tested for binding to human, cynomolgus monkey (“cyno”), guinea pig, mouse, and bovine ADAMTS5. To this end, recombinant ADAMTS5 was immobilized onto a CM5 chip via amine coupling using EDC and NHS. Purified Nanobodies were injected for 2 minutes at a concentration of 100 nM and allowed to dissociate for 15 min at a flow rate of 45 ul/min. Off-rate for each individual Nanobody was determined by fitting a 1:1 interaction model (Langmuir model) onto the individual dissociation curves using the BIA Evaluation software. As a reference, off-rates on human ADAMTS5 were determined in each experiment.

[3] = molecular target: T1, recombinant human ADAMTS5 (R&D Systems …); assay: as above
Protocol: as §1

[4] = molecular target: T3, guinea pig recombinant ADAMTS5; assay: as above
Protocol: as §1

[5] = molecular target: T1, recombinant human ADAMTS5 (R&D Systems …); assay: SPR off-rate, Biacore T100, ADAMTS5 immobilised, experiment 3
Protocol: as §1

[6] = molecular target: T1, recombinant human ADAMTS5 (R&D Systems …); assay: cell-based or functional assay; remark: listed apart in the source
[7] = molecular target: T1, recombinant human ADAMTS5 (R&D Systems …); assay: cell-based or functional assay; remark: listed apart in the source
[8] = molecular target: T1, recombinant human ADAMTS5 (R&D Systems …); assay: SPR off-rate, Biacore T100, ADAMTS5 immobilised, experiment 2
Protocol: as §1

[9] = molecular target: T4, mouse recombinant ADAMTS5; assay: as above
Protocol: as §1

[10] = molecular target: T2, cynomolgus monkey recombinant ADAMTS5; assay: cell-based or functional assay
[11] = molecular target: T1, recombinant human ADAMTS5 (R&D Systems …); assay: cell-based or functional assay; remark: listed apart in the source
[12] = molecular target: T3, guinea pig recombinant ADAMTS5; assay: cell-based or functional assay
[13] = molecular target: T1, recombinant human ADAMTS5 (R&D Systems …); assay: cell-based or functional assay; remark: listed apart in the source
[14] = molecular target: T1, recombinant human ADAMTS5 (R&D Systems …); assay: binding ELISA, periplasmic extract on coated human ADAMTS5
Protocol: In a first step, periplasmic extracts were tested for binding to recombinant human ADAMTS5 by binding ELISA. In brief, recombinant human ADAMTS5 (R&D Systems, Minneapolis, US; cat #2198-AD) at a concentration of 1 μg/ml was coated on 384-well MaxiSorp plates (Nunc, Wiesbaden, Germany). Wells were blocked with a casein solution (1%). After addition of a 10-fold dilution of the periplasmic extracts, Nanobody binding was detected using a mouse anti-Flag-HRP conjugate (Sigma, St. Louis, US) and a subsequent enzymatic reaction in the presence of the substrate esTMB (3,3′,5,5′-tetramentylbenzidine) (SDT, Brussels, Belgium). Clones showing ELISA signals higher than the sum of the average signal of the irrelevant Nanobody controls and 3 times the standard deviation of the irrelevant Nanobody controls were considered to encode positive human ADAMTS5 binding Nanobodies.

Binder | AlphaLISA IC50, Exp 1 [1] [nM] | AlphaLISA IC50, Exp 2 [1] [nM] | AlphaLISA IC50, Exp 3 [1] [nM] | AlphaLISA IC50, Exp 4 [1] [nM] | koff [2] [s⁻¹] | koff [3] [s⁻¹] | koff [4] [s⁻¹] | koff [5] [s⁻¹] | Human AlphaLISA % inhibition [6] [%] | Human AlphaLISA IC50 [6] [nM] | FRET assay % inh, periplasmic extract [7] [%] | FRET assay vi (U/min), periplasmic extract [7] [U/min] | koff [8] [s⁻¹] | koff [9] [s⁻¹] | AlphaLISA potency IC50, Cyno [10] [nM] | AlphaLISA potency IC50, Human [11] [nM] | AlphaLISA potency IC50, Guinea pig [12] [nM] | AlphaLISA IC50, - HSA [13] [nM] | binding ELISA (OD 450 nm) [14] [OD 450 nm]
B1 | 0.2 | 0.27 | 0.19 | 0.44 | – | – | – | – | – | – | – | – | – | – | – | – | – | – | –
B2 | – | – | – | – | 0.00092 | 0.00098 | 0.001 | 0.0014 | 100 | 0.11 | 110 | -2 | 0.0012 | 0.0037 | 0.12 | 0.11 | 0.13 | 0.11 | –
B3 | – | – | – | – | 0.0002 | 0.00023 | 0.00027 | 0.00046 | 96 | 0.39 | 111 | -2 | 0.00032 | 0.00064 | 0.22 | 0.39 | 0.35 | – | 2.57
B4 | – | – | – | – | 0.00074 | 0.00073 | 0.001 | 0.0012 | 100 | 0.3 | 105 | -1 | 0.00085 | 0.002 | 0.19 | 0.3 | 0.46 | 0.3 | 2.57
B5 | – | – | – | – | 0.00014 | 0.00017 | 0.00017 | 0.00038 | 100 | 0.1 | 106 | -1 | 0.00027 | 0.00053 | 0.12 | 0.1 | 0.35 | – | –
B6 | – | – | – | – | 0.00098 | 0.0011 | 0.0011 | 0.001 | 100 | 0.19 | 104 | -1 | 0.00094 | 0.0018 | 0.15 | 0.19 | 0.36 | 0.19 | 1.55
